From patent publication US20050239730A1, “Plasmodium falciparum erythrocyte binding protein baebl for use as a vaccine” (priority 2001, published 2005) come the findings set out here.

Assay [1] relates to binding of BAEBL to human erythrocytes. The experiment in a line: Competitive inhibition assay. The note with it: 1 μM, 10 μM, 100 μM, and 1000 μM; preincubated 1 hr at room temperature. Here is the method:
To determine the specificity of binding, we studied binding to neuraminidase-and trypsin-treated human erythrocytes and human erythrocytes with various genetically modified blood groups. […] To determine whether BAEBL was binding to the carbohydrates on the erythrocyte receptor, we performed competitive inhibition with Neu5Ac(α2-3) lactosialic and Neu5Ac(α2-6)lactosialic acid at 1 μM, 10 μM, 100 μM, and 1000 μM.
An inhibition assay was conducted in the presence of Neu5Ac(α2-3) lactosialic acid or Neu5Ac(α2-6) lactosialic acid (Sigma). Metabolically labeled parasite supernatant (50 μl) was preincubated with 1, 10, 100, or 1000 μM in 15 μl of the aforementioned carbohydrates for 1 hr at room temperature. Packed erythrocytes (50 μl) were added to the mixture. The erythrocyte binding assay was conducted as described above. Immunolocalization of BAEBL.

For assay [2], the target named is normal human erythrocytes (untreated). The experiment in a line: region II on COS cells, erythrocyte-binding assay.
The target of assay [3] is neuraminidase-treated normal human erythrocytes. Kind of assay: region II on COS cells, erythrocyte-binding assay.
The target of assay [4] is Gerbich human erythrocytes (exon 3 deletion of glycophorin C/D: shortened glycophorin C, absent glycophorin D). Kind of assay: region II on COS cells, erythrocyte-binding assay.
The target of assay [5] is trypsin-treated human erythrocytes. Kind of assay: region II on COS cells, erythrocyte-binding assay.
The subject of assay [6] is RBC (normal, trypsin- or neuraminidase-treated, Gerbich-negative). The experiment in a line: Erythrocyte-binding assay with BAEBL region II variants expressed on the surface of COS cells. It is filed as cell-based, human.

`CC(=O)NC1C(O)CC(OCC2OC(OC3C(CO)OC(O)C(O)C3O)C(O)C(O)C2O)(C(=O)O)OC1C(O)C(O)CO` (stereo not drawn) [Neu5Ac(α2-6) lactosialic acid]: the “Inhibition of the binding of BAEBL to human erythrocytes” value in assay [1] is listed as “neither Neu5Ac(α2-3) nor Neu5Ac(α2-6) lactosialic acid inhibited the binding”.

Regarding `CC(=O)NC1C(O)CC(OC2C(O)C(CO)OC(OC3C(CO)OC(O)C(O)C3O)C2O)(C(=O)O)OC1C(O)C(O)CO` (stereo not drawn) [Neu5Ac(α2-3) lactosialic acid], in assay [1], the “Inhibition of the binding of BAEBL to human erythrocytes” value was “neither Neu5Ac(α2-3) nor Neu5Ac(α2-6) lactosialic acid inhibited the binding”.

For “BAEBL region II variant INRE, expressed on the surface of COS cells (ligand)”, in assay [2], the COS cells with five or more attached RBC, total per coverslip (COS cells per coverslip) came out at 67. In addition, the percentage of binding to normal, untreated RBC turned out to be 110% in assay [3], 100% in assay [4] and 114% in assay [5].

In assay [2], “BAEBL region II variant ISKK, expressed on the surface of COS cells (ligand)” registered a COS cells with five or more attached RBC, total per coverslip (COS cells per coverslip) of 59. For the same molecule, the values for the percentage of binding to normal, untreated RBC in assay [4] and in assay [5] were 96% and 92%, respectively.

“BAEBL region II variant VSKK, expressed on the surface of COS cells (ligand)” yielded a COS cells with five or more attached RBC, total per coverslip (COS cells per coverslip) in assay [2] of 58. Besides, the percentage of binding to normal, untreated RBC worked out at 90% in assay [3] and 112% in assay [4].

B1: VSTK: BAEBL region II variant (aa 143-606) expressed in COS cells; V185, S239, T261, K285 (protein)
chain: TFIQKRTHLFACGIKRKSIKWICRENSEKITVCVPDRKIQLCVANFLNSRLETMEKFKEIFLISVNTEAKLLYNKNEGKDPSIFCNELRNSFSDFRSSFIGDDMDFGGNTDRVKGYINTKFSDYYKEKNVEKLNNIKKEWWEKNKANLWNHMIVNHKGNISKECAIIPAEEPQINLWIKEWNENFLMEKKRLFLNIKDKCVENKKYEACFGGCRLPCSSYTSFMKKSKTQMEVLTNLYKKKNSGVDKNNFLNDLFKKNNKNDLDDFFKNEKEYDDLCDCRYTATIIKSFLNGPAKNDVDIASQINVNDLRGFGCNYKSNNEKSWNCTGTFTNKFPGTCEPPRRQTLCLGRTYLLHRGHEEDYKEHLLGASIYEAQLLKYKYKEKDENALCSIIQNSYADLADIIKGSDIIKDYYGKKMEENLNKVNKDKKRNEESLKIFREKWWDENKENVWKVMSAVLKNKET
Take B1: the “Binding to Gerbich-negative RBC as percentage of binding to normal, untreated RBC” value in assay [6] (Gerbich-negative RBC (exon 3 deletion of glycophorin C/D)) was determined as 0.9%. In addition, the “Binding to neuraminidase-treated normal RBC as percentage of binding to normal, untreated RBC” value in assay [6] (neuraminidase-treated normal RBC) worked out at 0%. Besides, in assay [6] (normal untreated RBC, region II (aa 143-606) expressed in COS cells), the “Binding to normal RBC, untreated: COS cells with five or more attached RBC, total per coverslip” value was 65. In addition, the “Binding to trypsin-treated normal RBC as percentage of binding to normal, untreated RBC” value in assay [6] (trypsin-treated normal RBC) was 0%.
